Patent US9416187B2, “CD-20 specific antibodies and methods of employing same” (Duke University, dated 2016)
Positions count from the first letter of the chain named. Each block holds one molecule with its values, some of them ahead of it.

How the values were obtained:
mouse CD20 [1] = target: T1, mouse CD20 (mouse, UniProt P19437); assay: flow cytometry, spleen CD19+ B cells, control staining
T1 sequence: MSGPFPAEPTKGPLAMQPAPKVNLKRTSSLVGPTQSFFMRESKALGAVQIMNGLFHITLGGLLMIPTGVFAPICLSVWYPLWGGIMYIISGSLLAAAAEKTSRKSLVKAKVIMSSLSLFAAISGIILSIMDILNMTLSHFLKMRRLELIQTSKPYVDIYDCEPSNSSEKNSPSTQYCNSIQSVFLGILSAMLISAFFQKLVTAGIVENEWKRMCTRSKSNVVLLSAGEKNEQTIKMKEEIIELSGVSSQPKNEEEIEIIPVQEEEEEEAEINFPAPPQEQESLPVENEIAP

human CD20 [2] = target: T2, human CD20 (human, UniProt P11836); assay: flow cytometry, Raji cells, saturating antibody
T2 sequence: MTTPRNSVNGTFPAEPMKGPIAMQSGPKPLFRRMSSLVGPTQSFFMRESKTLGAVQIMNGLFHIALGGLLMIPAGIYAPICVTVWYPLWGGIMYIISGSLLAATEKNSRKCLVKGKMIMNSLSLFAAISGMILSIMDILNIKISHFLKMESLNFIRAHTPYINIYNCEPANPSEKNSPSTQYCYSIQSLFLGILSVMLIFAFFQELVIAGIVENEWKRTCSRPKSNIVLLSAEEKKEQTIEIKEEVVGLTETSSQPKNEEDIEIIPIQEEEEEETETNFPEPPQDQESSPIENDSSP

human CD20 [3] = target: T2, human CD20; assay: flow cytometry, BJAB cells, saturating antibody
human CD20 [4] = target: T2, human CD20; assay: flow cytometry, human blood B cells, saturating antibody
human CD20 [5] = target: T2, human CD20; assay: flow cytometry, DHL-4 cells, saturating antibody
mouse CD20 [6] = target: T1, mouse CD20; assay: flow cytometry, spleen CD19+ B cells, 0.5 µg/mL antibody

Molecule: B9E9 anti-CD20 monoclonal antibody
mean linear fluorescence intensity (human CD20 [2]): 438 | mean linear fluorescence intensity (human CD20 [3]): 377 | mean linear fluorescence intensity (human CD20 [4]): 112 | mean linear fluorescence intensity (human CD20 [5]): 162

Molecule: 1F5 anti-CD20 monoclonal antibody
mean linear fluorescence intensity (human CD20 [2]): 455 | mean linear fluorescence intensity (human CD20 [3]): 386 | mean linear fluorescence intensity (human CD20 [4]): 104 | mean linear fluorescence intensity (human CD20 [5]): 169

B1: MB20-1 monoclonal antibody (antibody, V domains shown)
VH: EVQLQESGGGLVQPGGSLKLSCAASGFTFSDYGMAWVRQAPRKGPEWVAFISNLAYSIYYADTVTGRFTISRENAKNTLYLEMSSLRSEDTAMYFCTRTGYYALDYWGQGTSVTVSS
VL: NIMMTQSPSSLAVSAGEKVTMRCKSSQSVLYSSKRKNYLAWYQQKPGKSPTLLIYWASTRESGVPDRFTGSGSGTDFTLTITSVQAEDLAVYYCHQYLSSFTFGGGTKLEIKR
B cell reactivity (mean linear fluorescence intensity) (mouse CD20 [6]): 69

B2: MB20-13 monoclonal antibody (antibody, V domains shown)
VH: B1 VH
VL: EIVLAQSPTTTAASPGEKITITCSASSSITSNYLHWYQQKPGFSPKLLIYRTSNLASGVPARFSGSGSGTSYSLTIGTMEAEDVATYYCQQGSSKTLTFGAGTKLELKR
B cell reactivity (mean linear fluorescence intensity) (mouse CD20 [6]): 603

B3: MB20-2 monoclonal antibody (antibody, V domains shown)
VH: EVQLQESGPELVKPGASVKISCKASGYMFTDYYIKWVKQSHGKSLEWIGDINPNNGDTIYNQKFKGKATLTVDKSSNTAYMDLRSLTSEDSAVYYCARERFAYWGQGTLVTVSA
VL: B2 VL with A5T, T11M, A25V, T30R, I76V, G77A, K95I, T96P
B cell reactivity (mean linear fluorescence intensity) (mouse CD20 [6]): 209

B5: MB20-10 monoclonal antibody (antibody, V domains shown)
VH: B3 VH with E10D, M28T, I34M, E46D, T58I, K65E, N77S, D82E
VL: B2 VL with A5T, T11M, A25V, S28N, T30R, E80K, K95I, T96P
B cell reactivity (mean linear fluorescence intensity) (mouse CD20 [6]): 317

B7: MB20-18 monoclonal antibody (antibody, V domains shown)
VH: B3 VH with P9L, E10D, M28T, I34M, E46D, T58I, K65E, N77S, D82E
VL: SIVMTQTPKFLLVSTGDRVTITCKASQTVTNDLAWYQQKPGQSPKLLIYYASNRYTGVPDRFTGSGYGTDFTFTINTVQAEDLAVYFCQQDYSSPLTFGAGTKLELKR
B cell reactivity (mean linear fluorescence intensity) (mouse CD20 [6]): 729

B9: HB20-3 monoclonal antibody (antibody, V domains shown)
VH: EVQLQESGAELVKPGASVKMSCKASGFTFTNYNMHWLKQTPGQGLEWIGAIYPENGDTSYNQKFKGKATLTADKASSTAYMHLSSLTSEDSAVYFCARFYYYGSYYGAMDYWGQGTSVTVSS
VL: MWGSVFNFSIVGARCDIQMTQSPASLSASVGETVTITCRASGNIHNYLAWYQQKQGKSPQLLVYNAKTLADGVPSRFSGSGSGTQFSLKINSLQPEDFGSYYCQHFWSTPWTFGGGTKLEIKR
mean linear fluorescence intensity (human CD20 [2]): 2220 | mean linear fluorescence intensity (human CD20 [3]): 1200 | mean linear fluorescence intensity (human CD20 [4]): 469 | mean linear fluorescence intensity (human CD20 [5]): 765

B11: HB20-25 monoclonal antibody (antibody, V domains shown)
VH: EVQLQESGAELVKPGASVKMSCKASGFRFTNYNLHWVKQTPGQGLEWIGAIYPGNGETSYNQKFKGKATLTADKSSSTAYMQLRSLTSGDSAVYYCARFYYYGSSYGAMDYWGQGTSVTVSS
VL: MWGSVFNFSIVDARCDIQMTQSPASLSVSVGETVTITCRASENIYSNLAWYQQKQGKSPQLLVYAATNLADGVPSRFSGSGSGTQYSLKINSLQSEDFGSYYCQHFWGIPWTFGGGTKLEIKR
mean linear fluorescence intensity (human CD20 [2]): 1350 | mean linear fluorescence intensity (human CD20 [3]): 849 | mean linear fluorescence intensity (human CD20 [4]): 227 | mean linear fluorescence intensity (human CD20 [5]): 514

Further lines, results first:

mean linear fluorescence intensity (mouse CD20 [1]): < 6
Molecule: isotype-matched control monoclonal antibodies

mean linear fluorescence intensity (human CD20 [2]): 944 | mean linear fluorescence intensity (human CD20 [3]): 700 | mean linear fluorescence intensity (human CD20 [4]): 277 | mean linear fluorescence intensity (human CD20 [5]): 486
Molecule: B1 anti-CD20 monoclonal antibody

B cell reactivity (mean linear fluorescence intensity) (mouse CD20 [6]): 240
B4: MB20-8 monoclonal antibody (antibody, V domains shown)
VH: B3 VH with E10D, M28T, I34M, E46D, T58I, K65E, N77S, D82E
VL: B2 VL with A5T, T11M, A25V, S28N, T30R, E80K, K95I, T96P

B cell reactivity (mean linear fluorescence intensity) (mouse CD20 [6]): 166
B6: MB20-14 monoclonal antibody (antibody, V domains shown)
VH: B3 VH with S85I
VL: B2 VL with A5T, T11M, A25V, T30R, I76V, G77A, K95I, T96P

B cell reactivity (mean linear fluorescence intensity) (mouse CD20 [6]): 525
B8: MB20-7 monoclonal antibody (antibody, V domains shown)
VH: B3 VH with E10D, I34M, I59T, K65E, N77S, D82E
VL: B2 VL with I2L, A5T, T11K, A25V, T30R, K40R, K95L, T96P

mean linear fluorescence intensity (human CD20 [2]): 1580 | mean linear fluorescence intensity (human CD20 [3]): 1100 | mean linear fluorescence intensity (human CD20 [4]): 397 | mean linear fluorescence intensity (human CD20 [5]): 578
B10: HB20-4 monoclonal antibody (antibody, V domains shown)
VH: B9 VH with L37V, K63R, A75S, S91T, M109L
VL: B9 VL with N43S, Q55L, T109I
